Laboratory results reported in paper PMC3568461.

Tested on: CCCC[C@H](NC(=O)c1ccccc1)C(=O)N[C@@H](CCCCN)C(=O)N[C@@H](CCCNC(=N)N)C(=O)N[C@@H](CCCNC(=N)N)C(=O)Nc1ccc2c(C)cc(=O)oc2c1
Experiment: In vitro WNV protease assay with tetra-peptide substrate
Assay type: biochemical, West Nile virus
Conditions: other: tetra-peptide substrate; pH 9.5; 25.0 °C

WNV NS2B-NS3 protease (West Nile virus strain NY-99)
Km: 24.56 ± 1.43 µM
